Data as given in the supplement of paper PMC9112550, “Optimization of the antimicrobial peptide Bac7 by deep mutational scanning” (BMC Biology, 2022).

Test system: Escherichia coli TOP10
Assay: shrunken log2 fold change of peptide-encoding DNA abundance (4.5 h post-induction vs induction); higher = less antimicrobial activity (less host growth inhibition)
Details: time post-induction: 4.5 h; library: site-saturation at positions 5, 18, 19, 20
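Note: peptides expressed intracellularly from a pBAD plasmid library in pooled LB shake-flask culture, induced with 0.3% L-arabinose, DNA abundance read by NGS, three biological replicates, DESeq2 with apeglm shrinkage.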

Row | Sequence | shrunken log2 fold change
1 | RRIRNRPPRLPRPRPRPFDFPRP | -0.161
2 | RRIRTRPPRLPRPRPRPFYQPRP | -0.65
3 | RRIRTRPPRLPRPRPRPRPWPRP | 0.0956
4 | RRIRCRPPRLPRPRPRPDPRPRP | 0.83
5 | RRIRVRPPRLPRPRPRPAISPRP | -0.122
6 | RRIRKRPPRLPRPRPRPSSYPRP | 0.0295
7 | RRIRIRPPRLPRPRPRPNIKPRP | -1.05
8 | RRIRFRPPRLPRPRPRPNCTPRP | 0.0099
9 | RRIRSRPPRLPRPRPRPRKLPRP | 0.316
10 | RRIRSRPPRLPRPRPRPPNHPRP | -0.16
11 | RRIRCRPPRLPRPRPRPKMVPRP | -0.0546
12 | RRIRHRPPRLPRPRPRPGIYPRP | 0.0151
13 | RRIRYRPPRLPRPRPRPIRQPRP | -0.0123
14 | RRIRQRPPRLPRPRPRPATPPRP | 0.331
15 | RRIRFRPPRLPRPRPRPNPGPRP | 0.159
16 | RRIRTRPPRLPRPRPRPWLHPRP | -0.166
17 | RRIRHRPPRLPRPRPRPRNHPRP | -0.481
18 | RRIRQRPPRLPRPRPRPTDHPRP | 0.0174
19 | RRIRNRPPRLPRPRPRPLKQPRP | 0.114
20 | RRIRNRPPRLPRPRPRPLTFPRP | -0.0233
21 | RRIRMRPPRLPRPRPRPSKCPRP | -0.0848
22 | RRIRDRPPRLPRPRPRPQSWPRP | -0.0644
23 | RRIRRRPPRLPRPRPRPVKVPRP | -0.1
24 | RRIRFRPPRLPRPRPRPSNHPRP | -0.681
25 | RRIRLRPPRLPRPRPRPFWEPRP | 0.117

Row | Sequence | shrunken log2 fold change
26 | RRIRCRPPRLPRPRPRPVKFPRP | -0.192
27 | RRIRHRPPRLPRPRPRPPVCPRP | -0.0372
28 | RRIRIRPPRLPRPRPRPHMSPRP | -0.109
29 | RRIRHRPPRLPRPRPRPHYMPRP | -0.854
30 | RRIRFRPPRLPRPRPRPWEYPRP | 0.0231
31 | RRIRCRPPRLPRPRPRPKTRPRP | 0.305
32 | RRIRRRPPRLPRPRPRPIILPRP | -0.406
33 | RRIRHRPPRLPRPRPRPKHQPRP | -0.195
34 | RRIRYRPPRLPRPRPRPCGRPRP | -0.00865
35 | RRIRRRPPRLPRPRPRPVDRPRP | 0.0916
36 | RRIRFRPPRLPRPRPRPLTWPRP | -0.163
37 | RRIRERPPRLPRPRPRPMHIPRP | -0.185
38 | RRIRNRPPRLPRPRPRPQAFPRP | -0.00429
39 | RRIRGRPPRLPRPRPRPEKPPRP | 0.316
40 | RRIRLRPPRLPRPRPRPYIDPRP | -0.00113
41 | RRIRTRPPRLPRPRPRPMNWPRP | -0.234
42 | RRIRHRPPRLPRPRPRPCKDPRP | -0.332
43 | RRIRCRPPRLPRPRPRPWNKPRP | -0.684
44 | RRIRERPPRLPRPRPRPMCFPRP | -0.176
45 | RRIRRRPPRLPRPRPRPGRQPRP | 0.541
46 | RRIRIRPPRLPRPRPRPHDEPRP | -0.463
47 | RRIRMRPPRLPRPRPRPDSRPRP | -0.00783
48 | RRIRWRPPRLPRPRPRPWVEPRP | 0.0386
49 | RRIRERPPRLPRPRPRPTNNPRP | -0.591
50 | RRIRNRPPRLPRPRPRPARRPRP | 0.294

Row | Sequence | shrunken log2 fold change
51 | RRIRRRPPRLPRPRPRPASIPRP | -0.0206
52 | RRIRGRPPRLPRPRPRPQRIPRP | 0.178
53 | RRIRPRPPRLPRPRPRPVCFPRP | -0.027
54 | RRIRFRPPRLPRPRPRPSFNPRP | -0.792
55 | RRIRKRPPRLPRPRPRPVVDPRP | -0.0213
56 | RRIRNRPPRLPRPRPRPRTIPRP | -0.221
57 | RRIRRRPPRLPRPRPRPHTYPRP | 0.573
58 | RRIRGRPPRLPRPRPRPEWNPRP | 1.71
59 | RRIRGRPPRLPRPRPRPLNGPRP | 0.11
60 | RRIRNRPPRLPRPRPRPQYEPRP | -0.117
61 | RRIRKRPPRLPRPRPRPFVWPRP | -0.0438
62 | RRIRERPPRLPRPRPRPYVEPRP | -0.534
63 | RRIRCRPPRLPRPRPRPFWTPRP | -0.317
64 | RRIRCRPPRLPRPRPRPQWNPRP | 0.618
65 | RRIRKRPPRLPRPRPRPRWNPRP | 0.323
66 | RRIRGRPPRLPRPRPRPVMAPRP | 0.745
67 | RRIRARPPRLPRPRPRPMFPPRP | -0.147
68 | RRIRCRPPRLPRPRPRPSYIPRP | -0.675
69 | RRIRWRPPRLPRPRPRPMYDPRP | -0.158
70 | RRIRDRPPRLPRPRPRPMRQPRP | 0.0681
71 | RRIRKRPPRLPRPRPRPMFSPRP | -0.0859
72 | RRIRLRPPRLPRPRPRPRAPPRP | 0.71
73 | RRIRNRPPRLPRPRPRPAKDPRP | 0.0231
74 | RRIRMRPPRLPRPRPRPAGPPRP | 0.484
75 | RRIRERPPRLPRPRPRPISPPRP | -0.356

Row | Sequence | shrunken log2 fold change
76 | RRIRDRPPRLPRPRPRPIGRPRP | 0.00739
77 | RRIRMRPPRLPRPRPRPVIHPRP | 0.0153
78 | RRIRGRPPRLPRPRPRPDFWPRP | 0.593
79 | RRIRERPPRLPRPRPRPAHMPRP | -0.291
80 | RRIRDRPPRLPRPRPRPVIKPRP | 0.0149
81 | RRIRQRPPRLPRPRPRPEQTPRP | 0.0148
82 | RRIRRRPPRLPRPRPRPSLYPRP | -0.35
83 | RRIRFRPPRLPRPRPRPGRPPRP | 0.514
84 | RRIRPRPPRLPRPRPRPPWNPRP | 0.77
85 | RRIRIRPPRLPRPRPRPVKRPRP | -0.09
86 | RRIRSRPPRLPRPRPRPVRMPRP | 0.0776
87 | RRIRTRPPRLPRPRPRPFEQPRP | -0.225
88 | RRIRHRPPRLPRPRPRPDEYPRP | -0.00149
89 | RRIRGRPPRLPRPRPRPFQPPRP | 0.0927
90 | RRIRNRPPRLPRPRPRPYQGPRP | -0.00804
91 | RRIRTRPPRLPRPRPRPQTMPRP | -0.151
92 | RRIRSRPPRLPRPRPRPKFSPRP | 0.0488
93 | RRIRSRPPRLPRPRPRPYNKPRP | -1.01
94 | RRIRVRPPRLPRPRPRPKAVPRP | 0.0112
95 | RRIRGRPPRLPRPRPRPPCIPRP | 0.117
96 | RRIRPRPPRLPRPRPRPLQWPRP | -0.037
97 | RRIRSRPPRLPRPRPRPVNKPRP | -0.404
98 | RRIRNRPPRLPRPRPRPNLIPRP | -0.369
99 | RRIRTRPPRLPRPRPRPFYKPRP | -0.6
100 | RRIRSRPPRLPRPRPRPWIIPRP | -0.159

Row | Sequence | shrunken log2 fold change
101 | RRIRRRPPRLPRPRPRPLRHPRP | 0.558
102 | RRIRHRPPRLPRPRPRPAFLPRP | 0.305
103 | RRIRSRPPRLPRPRPRPWWAPRP | -0.0137
104 | RRIRQRPPRLPRPRPRPSYHPRP | -0.178
105 | RRIRLRPPRLPRPRPRPLMGPRP | -0.0491
106 | RRIRMRPPRLPRPRPRPWCVPRP | 0.0904
107 | RRIRVRPPRLPRPRPRPHWLPRP | -0.291
108 | RRIRGRPPRLPRPRPRPSLTPRP | 0.78
109 | RRIRDRPPRLPRPRPRPAKWPRP | 0.486
110 | RRIRNRPPRLPRPRPRPLDCPRP | -0.00858
111 | RRIRWRPPRLPRPRPRPCMMPRP | -0.229
112 | RRIRTRPPRLPRPRPRPDHYPRP | -0.66
113 | RRIRGRPPRLPRPRPRPQGEPRP | 0.327
114 | RRIRDRPPRLPRPRPRPVGYPRP | 0.0934
115 | RRIRCRPPRLPRPRPRPLRPPRP | 0.815
116 | RRIRSRPPRLPRPRPRPYADPRP | -0.179
117 | RRIRYRPPRLPRPRPRPESHPRP | -0.226
118 | RRIRRRPPRLPRPRPRPDWSPRP | 0.182
119 | RRIRGRPPRLPRPRPRPKYIPRP | 0.167
120 | RRIRCRPPRLPRPRPRPHPTPRP | -0.0382
121 | RRIRHRPPRLPRPRPRPFMRPRP | -0.42
122 | RRIRMRPPRLPRPRPRPFDLPRP | 0.16
123 | RRIRFRPPRLPRPRPRPFDMPRP | -0.294
124 | RRIRGRPPRLPRPRPRPKMLPRP | 0.509
125 | RRIRDRPPRLPRPRPRPQAMPRP | 0.133

Row | Sequence | shrunken log2 fold change
126 | RRIRPRPPRLPRPRPRPSVMPRP | -0.123
127 | RRIRSRPPRLPRPRPRPKNPPRP | -0.11
128 | RRIRTRPPRLPRPRPRPRRKPRP | 0.0652
129 | RRIRFRPPRLPRPRPRPYCFPRP | -0.615
130 | RRIRERPPRLPRPRPRPTDQPRP | -0.127
131 | RRIRFRPPRLPRPRPRPFFGPRP | 0.0944
132 | RRIRGRPPRLPRPRPRPRRNPRP | 0.609
133 | RRIRTRPPRLPRPRPRPHYIPRP | -0.105
134 | RRIRQRPPRLPRPRPRPGYCPRP | -0.0255
135 | RRIRCRPPRLPRPRPRPVLAPRP | -0.0206
136 | RRIRQRPPRLPRPRPRPCSCPRP | 0.0297
137 | RRIRLRPPRLPRPRPRPVEDPRP | 0.0985
138 | RRIRGRPPRLPRPRPRPETMPRP | 1.14
139 | RRIRNRPPRLPRPRPRPQYKPRP | -0.876
140 | RRIRLRPPRLPRPRPRPWKKPRP | -0.279
141 | RRIRLRPPRLPRPRPRPIASPRP | -0.0599
142 | RRIRERPPRLPRPRPRPMHCPRP | -0.0195
143 | RRIRVRPPRLPRPRPRPAWLPRP | 0.186
144 | RRIRRRPPRLPRPRPRPRARPRP | 0.618
145 | RRIRARPPRLPRPRPRPPLGPRP | 0.671
146 | RRIRQRPPRLPRPRPRPVRHPRP | -0.0023
147 | RRIRIRPPRLPRPRPRPMNRPRP | -0.108
148 | RRIRSRPPRLPRPRPRPFQVPRP | -0.0848
149 | RRIRHRPPRLPRPRPRPEWHPRP | 0.0223
150 | RRIRVRPPRLPRPRPRPHQWPRP | -0.239
